According to patent US20170335290A1 (published 2017):
One block for each binder: values may come before it.

Assays:
[1] = biological target: T1, EPB42 (Erythrocyte membrane protein band 4.2) peptide on HLA-A*02:01 (human); assay: cytokine release
T1 peptide: QLLLGQFTLL

[2] = biological target: T2, CD3d (CD3 delta) peptide on HLA-A*02:01 (human); assay: cytokine release
T2 peptide: LLALGVFCFA

[3] = biological target: T3, CD81 (CD81 antigen) peptide on HLA-A*02:01 (human); assay: cytokine release
T3 peptide: QCLLGTFFTC

[4] = biological target: T4, CD3d (CD3 delta) peptide on HLA-A*02:01 (human); assay: cytokine release
T4 peptide: LALGVFCFA

[5] = biological target: T5, CRLS1 (cardiolipin synthase) peptide on HLA-A*02:01 (human); assay: cytokine release
T5 peptide: NIALGVFALA

[6] = biological target: T6, CSF3R (Granulocyte colony stimulating factor receptor) peptide on HLA-A*02:01 (human); assay: cytokine release
T6 peptide: HIILGLFGLL

[7] = biological target: T7, INGR2 (Interferon gamma receptor 2) peptide on HLA-A*02:01 (human); assay: cytokine release
T7 peptide: LLLLGVFAAA

[8] = biological target: T8, survivin, heteroclitic variant 97M peptide on HLA-A*02:01 (human); assay: 4-hour 51Cr release, 50% lysis at E:T 10:1, clone #24 against LML-pulsed T2 cells, peptide titration; T cell clone or line
T8 peptide: LMLGEFLKL

[9] = biological target: T9, survivin peptide on HLA-A*02:01 (human); assay: 51Cr release, clone #24 against ELT-pulsed T2 cells, E:T 10:1, peptide titration (avidity as defined in Table 1); T cell clone or line
T9 peptide: ELTLGEFLKL

[10] = biological target: T10, survivin ELT, alanine substitution at position 5 (residues not given, written out from the filing's … (human)); assay: cytokine release
T10 peptide: ELTLAEFLKL

[11] = biological target: T11, survivin ELT, alanine substitution at position 3 (residues not given, written out from the filing's … (human)); assay: cytokine release
T11 peptide: ELALGEFLKL

[12] = biological target: T9, survivin peptide on HLA-A*02:01; assay: killing
[13] = biological target: T8, survivin, heteroclitic variant 97M …; assay: 4-hour 51Cr release, 50% lysis at E:T 10:1, LML-pulsed T2 cells; value given for a published TCR (Leisegang et al. 2010); T cell clone or line

- binding result [1]: no recognition
- binding result [2]: no recognition
- binding result [3]: no recognition
- binding result [4]: no recognition
- binding result [5]: no recognition
- binding result [6]: no recognition
- binding result [7]: no recognition
B1: s24-TCR (TCR, V domains shown)
Valpha: GESVGLHLPTLSVQEGDNSIINCAYSNSASDYFIWYKQESGKGPQFIIDIRSNMDKRQGQRVTVLLNKTVKHLSLQIAATQPGDSAVYFCAETVTDSWGKLQFGAGTQVVVTP
Vbeta: DAMVIQNPRYQVTQFGKPVTLSCSQTLNHNVMYWYQQKSSQAPKLLFHYYDKDFNNEADTPDNFQSRRPNTSFCFLDIRSPGLGDAAMYLCATSRGDSTAEPQHFGDGTRLSIL
- EC50 of peptide [8]: 50 nM
- EC50 of peptide [9]: 1000 nM

- binding result [1]: no recognition
- binding result [2]: no recognition
- binding result [3]: recognises
- binding result [4]: recognises
- binding result [5]: no recognition
- binding result [6]: no recognition
- binding result [7]: no recognition
B2: A72-TCR (TCR)
Valpha: AQKITQTQPGMFVQEKEAVTLDCTYDTSDQSYGLFWYKQPSSGEMIFLIYQGSYDEQNATEGRYSLNFQKARKSANLVISASQLGDSAMYFCAMREGGGYNKLIFGAGTRLAVHP
beta TRBV30*02 TRBJ1-1*01 CDR3: CAGQDLNTEAFF
- binding result [10]: recognises
- binding result [11]: recognises
- binding result [12]: recognises
- EC50 of peptide [13]: 0.05 nM

B3: A66 (TCR)
alpha TRAV13-1*02 TRAJ39*01 CDR3: CAARAGNMLTF
beta TRBV30*01 TRBJ2-7*01 CDR3: CAWGTGLALYEQYF
- EC50 of peptide [13]: 50 nM
